Experiments:
EPHB1 = EPHB1 (UniProt P54762); assay: phosphorylation enrichment, bacterial display (enrichment ratio); higher = better substrate or ligand; peptides without Tyr show the background
Fyn = Fyn (UniProt P06241); assay: as above
c-Abl (mouse) = assay: as above
Jak2 = Jak2 (UniProt O60674); assay: as above
Fes = Fes (UniProt P07332); assay: as above
EPHB2 = EPHB2 (UniProt P29323); assay: as above
FGFR3 = FGFR3 (UniProt P22607); assay: as above
Hck = Hck (UniProt P08631); assay: as above
Sequence of Hck (P08631 whole entry, looked up): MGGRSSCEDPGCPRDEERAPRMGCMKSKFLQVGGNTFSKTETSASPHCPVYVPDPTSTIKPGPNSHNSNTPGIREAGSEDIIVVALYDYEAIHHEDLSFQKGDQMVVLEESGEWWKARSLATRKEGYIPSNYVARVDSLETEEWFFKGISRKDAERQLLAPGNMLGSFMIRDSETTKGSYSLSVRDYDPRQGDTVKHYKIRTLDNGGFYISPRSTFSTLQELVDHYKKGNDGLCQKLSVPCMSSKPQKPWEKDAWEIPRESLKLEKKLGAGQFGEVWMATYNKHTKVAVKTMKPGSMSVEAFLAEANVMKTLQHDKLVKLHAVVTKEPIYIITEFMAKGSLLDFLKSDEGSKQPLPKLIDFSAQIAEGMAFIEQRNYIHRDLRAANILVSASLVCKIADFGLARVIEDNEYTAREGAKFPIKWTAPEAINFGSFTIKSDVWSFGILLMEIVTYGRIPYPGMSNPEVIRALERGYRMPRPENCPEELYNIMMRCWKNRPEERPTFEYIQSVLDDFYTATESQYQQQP

MERTK = MERTK (UniProt Q12866); assay: as above
Fer (mouse) = assay: as above
FGFR1 = FGFR1 (UniProt P11362); assay: as above
AncSZ = assay: as above
c-Src = assay: as above
Grb2 SH2 = Grb2 SH2 (UniProt P62993); assay: SH2 binding enrichment of the phosphorylated peptide, bacterial display (enrichment ratio); higher = better substrate or ligand; peptides without Tyr show the background
SHP2-C SH2 = assay: as above
c-Src SH2 = assay: as above
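Throughout, for SH2 binding enrichment of the phosphorylated peptide, bacterial display: peptide library displayed on the E. coli surface as eCPX fusions, selected cells deep-sequenced, score is each peptide's frequency after selection divided by its frequency in the input.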
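Throughout, for phosphorylation enrichment, bacterial display: 11-residue human phosphosite peptides and single-mutation variants displayed on the E. coli surface, counted by deep sequencing, each peptide's frequency after selection divided by its frequency in the unselected input library; frequency after pTyr selection over input frequency; kinase dosed for 20-30% of maximal phosphorylation in three min.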

Sequence of Fes (P07332 whole entry, looked up): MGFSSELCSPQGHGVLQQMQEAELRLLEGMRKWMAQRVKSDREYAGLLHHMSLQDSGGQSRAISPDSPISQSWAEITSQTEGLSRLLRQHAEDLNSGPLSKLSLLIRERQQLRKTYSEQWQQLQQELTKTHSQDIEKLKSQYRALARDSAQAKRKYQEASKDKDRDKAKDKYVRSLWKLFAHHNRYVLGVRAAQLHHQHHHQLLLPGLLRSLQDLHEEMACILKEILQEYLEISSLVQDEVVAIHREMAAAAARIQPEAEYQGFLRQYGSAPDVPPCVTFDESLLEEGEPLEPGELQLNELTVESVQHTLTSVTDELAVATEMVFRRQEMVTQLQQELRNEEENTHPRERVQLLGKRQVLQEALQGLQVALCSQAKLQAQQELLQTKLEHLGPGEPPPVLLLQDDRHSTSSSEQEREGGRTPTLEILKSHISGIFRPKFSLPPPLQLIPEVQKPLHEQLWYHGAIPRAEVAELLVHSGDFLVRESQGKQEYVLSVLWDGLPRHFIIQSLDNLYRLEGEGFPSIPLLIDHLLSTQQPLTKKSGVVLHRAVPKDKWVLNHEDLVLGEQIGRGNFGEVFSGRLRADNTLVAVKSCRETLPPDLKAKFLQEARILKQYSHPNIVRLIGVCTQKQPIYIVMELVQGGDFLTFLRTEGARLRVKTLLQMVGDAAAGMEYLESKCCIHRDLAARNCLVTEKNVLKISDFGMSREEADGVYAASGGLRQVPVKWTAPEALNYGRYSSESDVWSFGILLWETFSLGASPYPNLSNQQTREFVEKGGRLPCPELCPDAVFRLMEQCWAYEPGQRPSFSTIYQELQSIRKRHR
Sequence of Fyn (P06241 whole entry, looked up): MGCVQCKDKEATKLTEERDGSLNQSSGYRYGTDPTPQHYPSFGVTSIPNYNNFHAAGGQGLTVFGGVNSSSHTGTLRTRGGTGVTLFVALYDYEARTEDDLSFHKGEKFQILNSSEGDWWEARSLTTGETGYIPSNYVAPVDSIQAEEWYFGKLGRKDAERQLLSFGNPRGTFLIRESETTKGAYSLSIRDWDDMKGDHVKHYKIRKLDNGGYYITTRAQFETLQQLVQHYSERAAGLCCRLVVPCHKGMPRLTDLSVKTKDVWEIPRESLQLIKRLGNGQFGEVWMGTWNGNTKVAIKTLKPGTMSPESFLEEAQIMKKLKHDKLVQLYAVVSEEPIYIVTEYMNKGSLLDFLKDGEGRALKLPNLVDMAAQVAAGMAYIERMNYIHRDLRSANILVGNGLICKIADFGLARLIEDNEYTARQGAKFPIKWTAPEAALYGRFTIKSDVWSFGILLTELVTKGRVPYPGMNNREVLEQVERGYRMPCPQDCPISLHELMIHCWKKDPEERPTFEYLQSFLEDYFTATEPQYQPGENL
Sequence of EPHB1 (P54762 whole entry, looked up): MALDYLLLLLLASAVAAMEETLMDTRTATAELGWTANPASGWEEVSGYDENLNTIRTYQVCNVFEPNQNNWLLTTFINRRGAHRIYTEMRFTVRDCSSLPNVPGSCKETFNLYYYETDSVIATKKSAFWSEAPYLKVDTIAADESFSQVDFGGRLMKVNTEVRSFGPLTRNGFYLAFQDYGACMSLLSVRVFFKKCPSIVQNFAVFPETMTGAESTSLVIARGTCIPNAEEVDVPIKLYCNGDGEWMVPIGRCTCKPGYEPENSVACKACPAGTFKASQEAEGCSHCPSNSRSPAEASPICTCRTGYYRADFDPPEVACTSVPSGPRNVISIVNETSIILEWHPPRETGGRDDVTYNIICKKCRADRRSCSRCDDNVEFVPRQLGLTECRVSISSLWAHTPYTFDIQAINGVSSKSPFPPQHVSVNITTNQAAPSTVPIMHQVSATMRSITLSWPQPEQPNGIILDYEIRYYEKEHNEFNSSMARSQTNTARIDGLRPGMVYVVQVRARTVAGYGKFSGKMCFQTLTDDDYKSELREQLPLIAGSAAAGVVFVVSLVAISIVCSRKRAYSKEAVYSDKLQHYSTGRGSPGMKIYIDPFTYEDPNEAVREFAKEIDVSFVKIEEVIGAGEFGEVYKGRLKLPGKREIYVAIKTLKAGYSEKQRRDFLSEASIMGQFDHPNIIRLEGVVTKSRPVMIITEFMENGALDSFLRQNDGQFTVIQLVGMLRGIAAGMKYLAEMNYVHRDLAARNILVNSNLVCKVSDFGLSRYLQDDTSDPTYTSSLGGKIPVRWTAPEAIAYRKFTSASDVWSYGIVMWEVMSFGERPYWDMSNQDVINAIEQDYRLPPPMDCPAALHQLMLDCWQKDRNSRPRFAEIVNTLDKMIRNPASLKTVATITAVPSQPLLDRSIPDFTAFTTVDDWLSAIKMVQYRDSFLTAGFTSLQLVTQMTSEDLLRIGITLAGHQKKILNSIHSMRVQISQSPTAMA
Sequence of EPHB2 (P29323 whole entry, looked up): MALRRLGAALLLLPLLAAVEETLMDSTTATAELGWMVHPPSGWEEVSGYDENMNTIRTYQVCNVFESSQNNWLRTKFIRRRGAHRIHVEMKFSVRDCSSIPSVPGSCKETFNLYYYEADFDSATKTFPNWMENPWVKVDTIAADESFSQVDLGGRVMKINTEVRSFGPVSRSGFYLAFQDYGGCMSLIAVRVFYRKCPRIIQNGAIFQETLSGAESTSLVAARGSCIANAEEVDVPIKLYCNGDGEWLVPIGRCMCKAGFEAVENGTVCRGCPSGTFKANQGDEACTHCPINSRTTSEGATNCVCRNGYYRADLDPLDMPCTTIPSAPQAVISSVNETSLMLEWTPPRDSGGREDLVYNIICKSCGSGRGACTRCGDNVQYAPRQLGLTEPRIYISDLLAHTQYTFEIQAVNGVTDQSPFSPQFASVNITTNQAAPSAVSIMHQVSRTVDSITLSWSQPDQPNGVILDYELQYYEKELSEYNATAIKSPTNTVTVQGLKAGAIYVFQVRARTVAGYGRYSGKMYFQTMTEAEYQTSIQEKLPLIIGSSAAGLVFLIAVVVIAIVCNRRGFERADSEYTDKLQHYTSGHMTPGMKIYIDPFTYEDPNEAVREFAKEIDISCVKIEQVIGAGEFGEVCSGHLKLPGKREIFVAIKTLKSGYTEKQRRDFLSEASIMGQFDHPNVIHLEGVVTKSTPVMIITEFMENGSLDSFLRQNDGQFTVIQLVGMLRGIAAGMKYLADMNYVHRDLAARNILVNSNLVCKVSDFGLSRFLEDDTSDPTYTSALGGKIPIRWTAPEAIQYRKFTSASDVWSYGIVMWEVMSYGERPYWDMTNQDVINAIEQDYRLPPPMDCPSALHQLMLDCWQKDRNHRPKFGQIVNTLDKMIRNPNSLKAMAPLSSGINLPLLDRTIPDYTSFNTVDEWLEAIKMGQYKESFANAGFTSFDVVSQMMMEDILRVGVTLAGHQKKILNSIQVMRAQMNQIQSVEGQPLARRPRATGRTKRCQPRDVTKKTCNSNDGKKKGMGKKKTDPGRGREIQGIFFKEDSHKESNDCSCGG
Sequence of FGFR3 (P22607 whole entry, looked up): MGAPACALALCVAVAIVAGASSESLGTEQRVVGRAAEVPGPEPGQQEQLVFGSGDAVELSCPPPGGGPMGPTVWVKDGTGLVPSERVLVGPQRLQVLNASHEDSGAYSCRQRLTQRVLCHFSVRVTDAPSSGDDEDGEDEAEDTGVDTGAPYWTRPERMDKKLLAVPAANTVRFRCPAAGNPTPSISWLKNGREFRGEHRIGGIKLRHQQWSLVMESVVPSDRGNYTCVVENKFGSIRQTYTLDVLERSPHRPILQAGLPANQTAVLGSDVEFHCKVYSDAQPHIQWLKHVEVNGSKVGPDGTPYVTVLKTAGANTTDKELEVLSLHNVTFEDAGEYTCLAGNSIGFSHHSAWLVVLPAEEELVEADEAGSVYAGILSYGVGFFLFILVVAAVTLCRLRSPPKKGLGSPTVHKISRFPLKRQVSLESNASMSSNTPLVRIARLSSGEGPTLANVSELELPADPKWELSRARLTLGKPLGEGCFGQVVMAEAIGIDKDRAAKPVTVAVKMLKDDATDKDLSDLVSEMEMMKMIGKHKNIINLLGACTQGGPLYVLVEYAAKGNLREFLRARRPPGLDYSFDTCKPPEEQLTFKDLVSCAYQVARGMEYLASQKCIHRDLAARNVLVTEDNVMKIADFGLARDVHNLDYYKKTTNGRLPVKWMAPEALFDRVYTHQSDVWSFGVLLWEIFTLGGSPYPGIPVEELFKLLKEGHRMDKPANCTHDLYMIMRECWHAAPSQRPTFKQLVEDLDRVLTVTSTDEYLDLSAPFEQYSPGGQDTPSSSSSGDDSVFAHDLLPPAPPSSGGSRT

Sequence	SH2 binding enrichment (Grb2 SH2)	SH2 binding enrichment (SHP2-C SH2)	SH2 binding enrichment (c-Src SH2)	phosphorylation enrichment (EPHB1)	phosphorylation enrichment (Fyn)	phosphorylation enrichment (c-Abl (mouse))	phosphorylation enrichment (Jak2)	phosphorylation enrichment (Fes)	phosphorylation enrichment (EPHB2)	phosphorylation enrichment (FGFR3)	phosphorylation enrichment (Hck)	phosphorylation enrichment (MERTK)	phosphorylation enrichment (Fer (mouse))	phosphorylation enrichment (FGFR1)	phosphorylation enrichment (AncSZ)	phosphorylation enrichment (c-Src)
PADSGYPAFLG [ATP6V1A_Y374_YF]	0.765	0.502	0.423	1.51	1.04	1.12	1.1	1.88	0.6	1.36	0.959	0.87	0.759	0.981	1.72	0.772
GGQVFHNSEYG [FLT4_Y1333_Y1333H]	0.665	0.655	0.474	0.438	0.362	0.857	0.67	0.712	0.431	0.535	0.377	0.314	0.349	0.386	0.581	0.425
AEPHTYEEPGR [EPHA8_Y616]	0.882	0.862	6.34	0.511	0.489	0.675	0.749	0.824	0.476	0.581	0.485	0.501	0.433	0.506	1.08	0.439
NELTYYCYKKD [CD59_Y87_C89Y]	0.728	0.505	0.482	0.804	3.84	5.45	2	1.51	0.826	1.98	4.17	1.77	0.692	2.1	1.81	4.48
PSQRRYVYYYS [PTEN_Y174]	1.55	4.7	2.25	0.57	0.648	1.21	1.13	1.08	0.459	0.785	0.497	2.42	0.503	2.08	0.958	0.872
SIKDKHVTALF [KCNH2_Y611_Y611H_YF]	0.659	0.456	0.443	0.354	0.417	0.486	0.441	0.633	0.42	0.435	0.463	0.469	0.399	0.418	0.576	0.52
NCLREYVAGRF [CRB1_Y711]	0.915	0.684	0.531	0.469	0.487	0.651	0.91	0.891	0.554	0.51	0.411	0.461	0.417	0.53	0.702	0.555
MSRNLYSGDCY [DDR2_Y736_Y740C]	0.796	0.614	0.746	2.11	1.96	0.581	0.69	0.993	2.35	1.15	2.27	4.75	0.811	0.951	0.985	1.49
YRASYYRKGGC [ALK_Y1283]	0.691	0.512	0.484	0.57	0.485	0.653	0.678	0.677	0.435	0.513	0.488	0.561	0.636	0.514	0.808	0.552

More lines, main results first:

SH2 binding enrichment (Grb2 SH2)	SH2 binding enrichment (SHP2-C SH2)	SH2 binding enrichment (c-Src SH2)	Sequence	phosphorylation enrichment (EPHB1)	phosphorylation enrichment (Fyn)	phosphorylation enrichment (c-Abl (mouse))	phosphorylation enrichment (Jak2)	phosphorylation enrichment (Fes)	phosphorylation enrichment (EPHB2)	phosphorylation enrichment (FGFR3)	phosphorylation enrichment (Hck)	phosphorylation enrichment (MERTK)	phosphorylation enrichment (Fer (mouse))	phosphorylation enrichment (FGFR1)	phosphorylation enrichment (AncSZ)	phosphorylation enrichment (c-Src)
0.729	0.748	0.488	WIPIQDPIISE [NOG_Y222_Y222D]	0.678	0.578	0.882	0.965	1.24	0.551	0.717	0.622	0.474	0.52	0.578	1.18	0.557
1.39	1.33	1.25	SHSMRYFFTAV [HLA-C_Y31_D33F]	0.595	0.53	0.923	1.13	1.3	0.626	0.874	0.525	0.525	0.619	0.62	1.13	0.568
1.12	0.628	0.585	HHTDECEFDEL [TGM1_Y134_Y134C_YF]	0.423	0.488	0.858	1.05	1.1	0.426	0.545	0.586	0.471	0.463	0.605	1.07	0.727
1.04	0.774	0.806	TNRSFYFKPSL [NUP153_Y382_V381F]	0.646	0.428	1.35	3.54	0.993	0.555	0.63	0.533	2.6	0.406	0.954	0.988	0.491
1.67	1.69	1.62	PLRAYYLIARV [HLCS_Y635_D634Y]	0.543	0.571	0.865	1.71	1.12	0.726	1.31	0.415	0.636	0.732	1.2	1.17	0.362
0.82	0.722	0.581	WFKKFYDANYD [MAPRE2_Y158]	0.477	0.398	0.774	0.899	1.03	0.529	0.552	0.423	0.399	0.398	0.43	1.18	0.364
1.16	1.04	0.731	EQKKYYNATKK [SCN5A_Y1495_M1498T]	0.399	0.375	0.485	0.503	0.54	0.383	0.387	0.384	0.371	0.407	0.343	0.478	0.411

Reference: the supplement of paper PMC10065799, “High-throughput profiling of sequence recognition by tyrosine kinases and SH2 domains using bacterial peptide display” (eLife, 2023)
